For assay [1], the target named is trypsin (immobilized active trypsin, Pierce; or free trypsin) (UniProt P00760). Nature of the assay: phage on trypsin beads, pH 2.2 elution.
In assay [2] the target is anhydro-trypsin (agarose-immobilized, Pierce) (UniProt P00760). The assay is described as follows: phage titer after incubation with agarose beads.
Assay [3] deals with streptavidin (agarose-immobilized, Sigma) (UniProt P22629). The assay is described as follows: phage titer after incubation with agarose beads.
The target of assay [4] is anhydro-trypsin (agarose-immobilized, Pierce) (UniProt P00760). The assay is described as follows: phage on agarose beads, pH 2.2 elution, dot blot.
Assay [5] concerns the target streptavidin (agarose-immobilized, Sigma) (UniProt P22629). The assay is described as follows: phage on agarose beads, pH 2.2 elution, dot blot.
The target in assay [6] is anhydro-trypsin (agarose-immobilized, Pierce) (UniProt P00760). Nature of the assay: phage on beads, elution, pfu.
The target in assay [7] is trypsin (immobilized active trypsin, Pierce; or free trypsin) (UniProt P00760). The assay is described as follows: phage on beads, elution, pfu.
For assay [8], the target named is human neutrophil elastase (HNE), immobilized on agarose beads (human) (UniProt P08246). Nature of the assay: phage on beads, acid elution, pfu.
In assay [9] the target is trypsin (immobilized active trypsin, Pierce; or free trypsin) (UniProt P00760). The assay is described as follows: phage on beads, acid elution, pfu.
For another assay, the target named is Protein A-agarose beads (UniProt P38507). Nature of the assay: phage titer after protein A-agarose.
Assay [10] addresses normal rabbit serum / IgG purified from normal rabbit serum. The assay is described as follows: phage titer after normal rabbit IgG.
Assay [11] has as its target anhydro-trypsin (agarose-immobilized, Pierce) (UniProt P00760). Nature of the assay: phage on beads, acid elution, pfu; experiment 1.
Assay [12] shares this target. Nature of the assay: phage on beads, acid elution, pfu; experiment 2.
Assay [13] has as its target normal rabbit serum / IgG purified from normal rabbit serum. The assay is described as follows: phage titer after normal rabbit IgG and protein A-agarose.
Assay [14] deals with T1, human neutrophil elastase (HNE), immobilized on agarose beads (human, UniProt P08246 30-247, limits assumed).
T1 construct: also called HNE beads; leukocyte elastase
T1 sequence (looked up): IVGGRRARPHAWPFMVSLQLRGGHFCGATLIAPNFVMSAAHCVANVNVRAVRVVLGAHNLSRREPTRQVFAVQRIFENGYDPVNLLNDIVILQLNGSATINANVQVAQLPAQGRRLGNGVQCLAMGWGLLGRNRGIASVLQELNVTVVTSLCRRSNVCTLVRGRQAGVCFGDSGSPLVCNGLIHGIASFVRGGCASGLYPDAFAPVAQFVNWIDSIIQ
The assay is described as follows: phage on HNE beads, stepwise pH elution.

Assay [15] has as its target T1, human neutrophil elastase (HNE), …. The assay is described as follows: phage on HNE beads, abbreviated pH elution.

Experimental findings from patent publication US20060084113A1 (published 2006) are described below.

Sequence of streptavidin (agarose-immobilized, Sigma) (P22629 37-163 limits assumed): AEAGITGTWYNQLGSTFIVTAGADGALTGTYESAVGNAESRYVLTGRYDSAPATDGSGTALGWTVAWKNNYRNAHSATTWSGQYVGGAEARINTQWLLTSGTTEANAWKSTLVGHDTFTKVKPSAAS
Sequence of trypsin (immobilized active trypsin, Pierce; or free trypsin) (P00760 24-246): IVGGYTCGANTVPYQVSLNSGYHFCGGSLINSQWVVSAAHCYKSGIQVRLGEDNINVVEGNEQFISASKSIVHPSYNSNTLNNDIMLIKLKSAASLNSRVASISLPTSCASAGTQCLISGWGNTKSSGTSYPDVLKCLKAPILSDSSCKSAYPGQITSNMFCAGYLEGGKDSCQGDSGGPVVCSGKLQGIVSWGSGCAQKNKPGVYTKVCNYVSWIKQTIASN

In assay [1], MK phage (control, no displayed domain) had a percent of input phage recovered, CBS pH 6.5 of 0.00028%; a percent of input phage recovered, TBS pH 7.5 of 0.00034%; a total pfu recovered in elution buffer, CBS pH 6.5 of 1.35e+06 pfu; a total pfu recovered in elution buffer, TBS pH 7.5 of 1.48e+06 pfu. In assay [2], this molecule yielded a percent residual titer, 1 h, 2 µl IAT of 97%; a percent residual titer, 1 h, 5 µl IAT of 110%; a percent residual titer, 1 h, 10 µl IAT of 99%; a percent residual titer, 2 h, 2 µl IAT of 103%. In assay [2], this molecule gave a percent residual titer, 2 h, 5 µl IAT of 111%; a percent residual titer, 2 h, 10 µl IAT of 93%; a percent residual titer, 4 h, 2 µl IAT of 95%; a percent residual titer, 4 h, 5 µl IAT of 96%. In [2], this molecule returned a percent residual titer, 4 h, 10 µl IAT of 106%. In addition, in assay [3], the percent residual titer, 1 h, 5 µl IS worked out at 106%; the percent residual titer, 2 h, 5 µl IS came out at 96%; the percent residual titer, 4 h, 5 µl IS turned out to be 98%. Moreover, in assay [4], the percent of total phage recovered in elution buffer, 2 µl IAT was less than 1%; the percent of total phage recovered in elution buffer, 5 µl IAT is less than 1%; the percent of total phage recovered in elution buffer, 10 µl IAT was less than 1%. This molecule came in with a percent of total phage recovered in elution buffer, 5 µl IS in assay [5] of less than 1%.

For the molecule “M13mp18 phage (wild type control, non-display phage)”, the eluted phage, % of input is 0.1 % of input in assay [6]; 0.00023 % of input in assay [7]; 0.0003 % of input in assay [8]; 0.0005 % of input in [9]; 0.2 % of input in assay [11]; 0.3 % of input in assay [12]. Further, the relative binding (to M13MP18) in assay [6], in assay [7], in assay [8] and in assay [9] was 1 fold in each case. In the assay with Protein A-agarose beads, the % of input pfu left, +Protein A was 72 % of input. In addition, in [10], the % of input pfu left, +NRS was 104 % of input. In [11], this molecule returned a binding relative to M13MP18 of 1 fold. For the same molecule, in assay [12], the binding relative to M13mp18 worked out at 1 fold. The % of input pfu left, +NRS +Protein A in assay [13] is 88 % of input.

B1: MA-ITI-E7 phage (ITI-DI-III fusion with the EpiNE-7 changes around the P1 position) (designed binder)
chain: KEDSCQLGYSAGPCVAMFPRYFYNGTSMACETFQYGGCMGNGNNFVTEKECLQTCRGAAETVESCLAKPHTENSFTNVWKDDKTLDRYANYEGCLWNATGVVVCTGDETQCYGTWVPIGLAIPENEGGGSEGGGSEGGGSEGGGTKPPEYGDTPIPGYTYINPLDGTYPPGTEQNPANPNPSLEESQPLNTFMFQNNRFRNRQGALTVYTGTVTQGTDPVKTYYQYTPVSSKAMYDAYWNGKFRDCAFHSGFNEDPFVCEYQGQSSDLPQPPVNAGGGSGGGSGGGSEGGGSEGGGSEGGGSEGGGSGGGSGSGDFDYEKMANANKGAMTENADENALQSDAKGKLDSVATDYGAAIDGFIGDVSGLANGNGATGDFAGSNSQMAQVGDGDNSPLMNNFRQYLPSLPQSVECRPFVFSAGKPYEFSIDCDKINLFRGVFAFLLYVATFMYVFSTFANILRNKES
With B1, the “fold lower total fraction eluted than EpiNE-7 phage” value in assay [14] is approximately 40 fold. In assay [15], the “fold lower total fraction eluted than EpiNE-7 phage” value came to 40 fold and the “fold total fraction eluted against MA-ITI phage” value amounted to 10 fold.
